Measurements from patent US20250145679A1 (WUXI BIOLOGICS IRELAND, published 2025).

How the values were obtained:
[1] = target: T1, human lymphoma (HH) cell line (human); experiment: binding to HH cells, dose-dependent (FIG. 5); receptor on the cells not named
T1 construct: Cells, not a defined protein

IL-2/15Rβ (CD122) ECD = target: T2, IL-2/15Rβ (CD122) ECD (human, UniProt P14784 27-239); experiment: SPR, Biacore 8K, complex captured on anti-human Fc CM5 chip, receptor ECD-His injected
T2 construct: The SPR text names the analyte only as 'W327151-hPro2.ECD.His'; also called Receptor β; IL-15Rβ
T2 sequence: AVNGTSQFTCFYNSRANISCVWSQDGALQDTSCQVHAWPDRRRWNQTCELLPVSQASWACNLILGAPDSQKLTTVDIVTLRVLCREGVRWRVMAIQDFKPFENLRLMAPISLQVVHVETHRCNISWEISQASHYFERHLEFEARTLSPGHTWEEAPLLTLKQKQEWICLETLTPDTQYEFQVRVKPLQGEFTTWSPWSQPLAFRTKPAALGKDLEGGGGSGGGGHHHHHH
Protocol: IL-15 variants binding affinity to its receptor were detected by SPR using Biacore 8K. Each variant was captured on anti-human Fc immobilized CM5 sensor chip (cytiva). W327151-hPro2.ECD.His at different concentrations were injected over the sensor chip at a flow rate of 30 uL/min for an association phase of 120 s, followed by 120 s dissociation. The chip was then regenerated by 10 mM Glycine-HCl pH 1.5 after each binding cycle.

B1: W327151-TXU1.P1-V0013.uIgG4V322 (Fc fusion)
chain 1: NWVNVISDLKKIEDLIQSMHIDATLYTESDVHPSCKVTAMKCFLLELQVISLESGDASIHDTVENLIILANNSLSSNGNVTESGCKECEELEEKNIKEFLQSFVHIVQMFESKYGPPCPPCPAPEAAGGPSVFLFPPKPKDTLMISRTPEVTCVVVDVSQEDPEVQFNWYVDGVEVHNAKTKPREEQFNSTYRVVSVLTVLHQDWLNGKEYKCKVSNKGLPSSIEKTISKAKGQPREPQVYTLPPCQEEMTKNQVSLWCLVKGFYPSDIAVEWESNGQPENNYKTTPPVLDSDGSFFLYSRLTVDKSRWQEGNVFSCSVMHEALHNHYTQKSLSLSLGK
chain 2: ITCPPPMSVEHADIWVKSYSLYSRERYICNSGFKRKAGTSSLTECVLNKATNVAHWTTPSLKCIRESKYGPPCPPCPAPEAAGGPSVFLFPPKPKDTLMISRTPEVTCVVVDVSQEDPEVQFNWYVDGVEVHNAKTKPREEQFNSTYRVVSVLTVLHQDWLNGKEYKCKVSNKGLPSSIEKTISKAKGQPREPQVCTLPPSQEEMTKNQVSLSCAVKGFYPSDIAVEWESNGQPENNYKTTPPVLDSDGSFFLVSRLTVDKSRWQEGNVFSCSVMHEALHNHYTQKSLSLSLGK
notes: Heterodimeric IL-15/IL-15Ralpha-Fc polypeptide complex; IgG4 Fc with S228P and F234A/L235A, knob-into-hole
Work on B1 yielded an EC50 [1] of 91.9 nM, a Kd (IL-2/15Rβ (CD122) ECD) of 7.9 nM and a koff (IL-2/15Rβ (CD122) ECD) of 0.00483 s⁻¹. For the same binder, the kon (IL-2/15Rβ (CD122) ECD) was 612000 M⁻¹ s⁻¹.
